The values below come from US20190248882A1 (published 2019).

The target of one experiment is A33A8 VH. Kind of experiment: BLI (Octet); VH domain alone.
Experiment [1] concerns the target T1, human ANG-2 (R&D Systems) (UniProt O15123 68-496, biotinylated in the Tie-2 competition ELISA (site not stated)).
T1 chain: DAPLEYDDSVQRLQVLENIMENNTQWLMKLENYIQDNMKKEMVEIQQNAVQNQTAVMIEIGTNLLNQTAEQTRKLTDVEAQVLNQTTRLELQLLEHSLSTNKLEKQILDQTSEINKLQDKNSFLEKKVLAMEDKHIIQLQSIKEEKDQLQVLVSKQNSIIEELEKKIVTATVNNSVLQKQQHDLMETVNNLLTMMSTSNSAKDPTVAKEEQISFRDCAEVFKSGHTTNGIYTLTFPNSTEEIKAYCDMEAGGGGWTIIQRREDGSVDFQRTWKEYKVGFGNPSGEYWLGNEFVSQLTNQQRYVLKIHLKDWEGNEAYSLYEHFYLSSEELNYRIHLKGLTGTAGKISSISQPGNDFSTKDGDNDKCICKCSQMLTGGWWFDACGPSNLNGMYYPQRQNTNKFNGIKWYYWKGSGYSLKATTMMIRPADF
The experiment in a line: inhibition of ANG-2 binding to Tie-2 on HEK293 cells.

In general, Kd refers to the constant that tells how readily two partners part at equilibrium. Read a high Kd as a looser complex. Usually IC50 stands for the concentration that inhibits the measured activity by half. Low readings indicate inhibition by little substance, high ones a need for much substance.

B1: ANG-2 (ligand)
chain: T1 chain
modifications: biotinylated in the Tie-2 competition ELISA (site not stated)
Molecule B1 came in with a Kd with A33A8 VH of less than 1 pM.

B2: A33A8 human anti-ANG-2 HCAb (antibody, V domains shown)
VH: QVQLVESGGGLVQPGGSLRLSCAASGFTFSSYWMHWVRQAPGKGLVWVSRINSDGSSTSYADSVKGRFTISRDNAKNTLYLQMNSLRAEDTAVYYCAREGYSSGGQFDYWGQGTLVTVSS
B2: the IC50 in experiment [1] was 0.295 nM.
